For 36 sequences, Kd results are on record in the Immune Epitope Database (IEDB).

One experiment deals with HLA-B*44:02. Put plainly: IEDB peptide-MHC binding, purified MHC/competitive/radioactivity; filed as Kd, often an IC50 or EC50 that approximates it; ≥ and ≤ were set here for values at or beyond the usual limits of such assays.
The target of another experiment is HLA-B*44:03. The description is as above.
Another experiment has as its target HLA-A*30:02. The experiment is described as above.
The target in the next experiment is HLA-A*23:01. The description is as above.
In the next experiment the target is HLA-A*24:02. The experiment is described as above.
Another experiment concerns the target HLA-A*29:02. The description is as above.
In the next experiment the target is HLA-A*01:01. Described as above.
The next experiment deals with HLA-A*26:01. Described as above.
For experiment [1], the target named is HLA-A*11:01. Put plainly: IEDB peptide-MHC binding, purified MHC/direct/fluorescence; filed as Kd, often an IC50 or EC50 that approximates it; ≥ and ≤ were set here for values at or beyond the usual limits of such assays.
Experiment [2] addresses HLA-A*03:01. Described as above.
Experiment [3] addresses HLA-A*03:01. Put plainly: IEDB peptide-MHC binding, purified MHC/competitive/radioactivity; filed as Kd, often an IC50 or EC50 that approximates it; ≥ and ≤ were set here for values at or beyond the usual limits of such assays. The following applies: source organism: Vaccinia virus WR.
Experiment [4] concerns the target HLA-A*11:01. The description is as above. The following applies: source organism: Vaccinia virus WR.
A further experiment deals with HLA-A*31:01. Described as above. The following applies: source organism: Vaccinia virus WR.
Another experiment deals with HLA-A*33:01. The experiment is described as above. The following applies: source organism: Vaccinia virus WR.
For a further experiment, the target named is HLA-A*68:01. Described as above. The following applies: source organism: Vaccinia virus WR.
For the next experiment, the target named is HLA-A*02:06. The experiment is described as above.
Another experiment has as its target HLA-B*15:01. Put plainly: IEDB peptide-MHC binding, purified MHC/direct/fluorescence; filed as Kd, often an IC50 or EC50 that approximates it; ≥ and ≤ were set here for values at or beyond the usual limits of such assays. The following applies: source organism: Bacillus licheniformis.
A further experiment addresses HLA-B*07:02. The description is as above. The following applies: source organism: Human immunodeficiency virus 1.
A further experiment addresses HLA-B*58:01. Described as above. The following applies: source organism: Mycobacterium tuberculosis.
The mark [5] stands for this setting: source organism: Dengue virus 4 Philippines/H241/1956.
[6] abbreviates: source organism: Dengue virus 3 Martinique/1243/1999.
Setting [7] is: source organism: Lymphocytic choriomeningitis virus (strain Armstrong).
Setting [8] is: source organism: Dengue virus 1 Nauru/West Pac/1974.
Where [9] appears, read: source organism: Dengue virus 1 Brazil/97-11/1997.
[10] abbreviates: source organism: Dengue virus 2 Jamaica/1409/1983.
Setting [11] is: source organism: Vaccinia virus WR.
The mark [12] stands for this setting: source organism: Bacillus licheniformis.
Where [13] appears, read: source organism: Mammarenavirus guanaritoense.
The mark [14] stands for this setting: source organism: Lassa virus Josiah.
Where [15] appears, read: source organism: Dengue virus 4 Dominica/814669/1981.
[16] abbreviates: source organism: Dengue virus 3 Sri Lanka/1266/2000.

As for AEIQPQWIAA, the equilibrium dissociation constant (Kd) (in general, a measure of binding affinity in units of concentration) in the experiment with HLA-B*44:02 (setting [5]) came to 0.0672 µM; in the experiment with HLA-B*44:03 (setting [5]), 1.12 µM.

Consider AEITPQAST, for which the Kd in the experiment with HLA-B*44:02 (setting [6]) was 0.0165 µM.

For the sequence CGRGGWSYY, the Kd with HLA-A*30:02 (setting [6]) is 0.253 µM.

Consider CWLVTNGSYL, for which the Kd with HLA-A*23:01 (setting [7]) was found to be 0.138 µM; in the experiment with HLA-A*24:02 (setting [7]), 0.841 µM; in the experiment with HLA-A*29:02 (setting [7]) it was 2.89 µM.

For the sequence DTSEVHWNY, the Kd was 0.111 µM with HLA-A*01:01 (setting [5]), 0.0416 µM in the experiment with HLA-A*26:01 (setting [5]) and 3.86 µM with HLA-A*30:02 (setting [5]).

Consider EAEPPFGESY, for which the Kd with HLA-A*01:01 (setting [8]) is 1.36 µM; with HLA-A*26:01 (setting [8]) it was 0.669 µM.

EISSMLNIM: the Kd in the experiment with HLA-A*26:01 (setting [9]) amounted to 0.657 µM.

With ELPETMETLL, in the experiment with HLA-A*26:01 (setting [6]), the dissociation constant Kd was determined as 2.37 µM.

Consider ENPYRTWAYH, for which the Kd with HLA-A*26:01 (setting [5]) was no less than 69.7 µM.

With ERPAFGIQK, in the experiment with HLA-A*11:01 [1] (source organism: Homo sapiens), the Kd was 17.5 µM.

Turning to ESEMIIPKNF, the Kd was no less than 70.4 µM in the experiment with HLA-A*01:01 (setting [10]) and no less than 69.7 µM in the experiment with HLA-A*26:01 (setting [10]).

For ETLMLLALIA, in the experiment with HLA-A*26:01 (setting [9]), the Kd is no less than 33.6 µM.

In the experiment with HLA-A*03:01 [2] (source organism: Cryptosporidium parvum), FFAFGHMIK showed an equilibrium dissociation constant (Kd) of no less than 20 µM.

Consider FSCGLSLQDY, for which the Kd with HLA-A*03:01 [3] was 0.977 µM; in the experiment with HLA-A*11:01 [4], 0.269 µM; with HLA-A*29:02 (setting [11]), no less than 71.4 µM; in the experiment with HLA-A*31:01, 2.31 µM; with HLA-A*33:01 it was 9.25 µM; with HLA-A*68:01 it was 0.263 µM.

Take FTDPSSVAA: the Kd with HLA-A*01:01 (setting [5]) is 0.00171 µM; with HLA-A*02:06 (setting [5]) it was 0.0594 µM.

For GVGAPTTTY, the results for the Kd with HLA-A*03:01 [2] (setting [12]), in the experiment with HLA-A*11:01 [1] (setting [12]) and with HLA-B*15:01 were 7.45 µM, 10.1 µM and 0.12 µM, respectively.

On to GYRFFNKTL, for which the results for the Kd with HLA-A*23:01 (setting [13]), with HLA-A*24:02 (setting [13]) and in the experiment with HLA-A*29:02 (setting [13]) were 0.21 µM, 1.19 µM and 3.59 µM, respectively.

For HFFMKHPNK, the Kd in the experiment with HLA-A*03:01 [2] (source organism: Coxiella burnetii) worked out at 0.218 µM.

As for HYLCLNCLT, the Kd with HLA-A*01:01 (setting [14]) is 6.91 µM; with HLA-A*26:01 (setting [14]), no less than 77.9 µM; in the experiment with HLA-A*30:02 (setting [14]), 3.02 µM.

Consider IGKMFESTY, for which the Kd with HLA-A*30:02 (setting [15]) was 0.338 µM.

Turning to IKYTDRKWCF, the Kd with HLA-A*24:02 (setting [6]) was determined as 2.37 µM.

IPLTEEAEL: in the experiment with HLA-B*07:02, the Kd amounted to 5.31 µM.

ITLTAALLLL: the Kd with HLA-A*01:01 (setting [10]) was determined as 5.94 µM; with HLA-A*02:06 (setting [10]), 0.0274 µM.

As for IVNNQESNKY, the Kd with HLA-A*03:01 [3] is 0.487 µM; with HLA-A*11:01 [4] it was 1.65 µM; in the experiment with HLA-A*29:02 (setting [11]), no less than 32.6 µM; in the experiment with HLA-A*31:01, no less than 52.9 µM; in the experiment with HLA-A*33:01, no less than 70 µM; with HLA-A*68:01, 7.54 µM.

On to IYGAAFSGV, for which, in the experiment with HLA-A*24:02 (setting [10]), the Kd was determined as 0.398 µM.

Consider KEVALLRTYC, for which the Kd with HLA-B*44:03 (setting [5]) came to 0.128 µM.

As to KKGKVVGLY, the Kd with HLA-A*30:02 (source organism: Dengue virus 2 Peru/IQT2913/1996) stood at 0.0853 µM.

On to LSNAGSNNW, for which the equilibrium dissociation constant (Kd) with HLA-B*58:01 was determined as 0.0486 µM.

LTDFQSHQL: in the experiment with HLA-A*01:01 (source organism: Dengue virus 1 Singapore/S275/1990), the dissociation constant (Kd) worked out at 6.44 µM.

In the case of LTLTAAVLLL, in the experiment with HLA-A*01:01 (setting [6]), the Kd came to 13.9 µM.

In the case of LVQIENLEY, the Kd in the experiment with HLA-A*01:01 (setting [5]) was 0.0904 µM; with HLA-A*30:02 (setting [5]), 1.11 µM.

Consider MEAQLVRQM, for which the Kd came out at 0.0147 µM in the experiment with HLA-B*44:02 (setting [16]) and 0.123 µM with HLA-B*44:03 (setting [16]).

Take MELKYSWKT: the Kd in the experiment with HLA-B*44:03 (setting [6]) amounted to 0.343 µM.

MSPGYVLGVF: the Kd was 1 µM with HLA-A*23:01 (setting [15]), 1.48 µM in the experiment with HLA-A*24:02 (setting [15]) and 1.6 µM with HLA-A*26:01 (setting [15]).

In the case of MVTLYLGVM, in the experiment with HLA-A*26:01 (setting [9]), the dissociation constant Kd came to 0.163 µM.

On to MYFHRRDLRL, for which the Kd with HLA-A*23:01 (setting [10]) was found to be 0.0573 µM; with HLA-A*24:02 (setting [10]), 0.149 µM.
